Reference: US9708383 (Novo Nordisk, dated 2017)
*1 amine or outer side, *2 acyl side, *3 side chain or, on linkers, in order; H or OH if unused. Where no end group is shown, it is not given here. Side-chain parts run from the residue outwards. The star is where a group is joined. 8‑(4-carboxyphenoxy)octanoyl = O=C(O)c1ccc(OCCCCCCCC(=O)*)cc1; Decanoyl(10-(4-HOOC-PhO)) = O=C(O)c1ccc(OCCCCCCCCCC(=O)*)cc1; γGlu = O=C(O)[C@H](CCC(=O)[*:2])N[*:1]; C12 diacid = O=C(O)CCCCCCCCCCC(=O)*; 13‑carboxytridecanoyl = C14 diacid; AEEA = NCCOCCOCC(=O)O

B1: GLP-1 derivative of Example 46: [Lys18,Glu22,Val25,Arg26,Lys27,Arg34]-GLP-1-(7-37)-peptide (peptide)
peptide: HAEGTFTSDVSK([AEEA-AEEA-γGlu-13‑carboxytridecanoyl])YLEEQAVRK([AEEA-AEEA-γGlu-13‑carboxytridecanoyl])FIAWLVRGRG
B2: GLP-1 derivative of Example 77: [Lys18,Val25,Arg26,Lys31,Arg34]-GLP-1-(7-37)-peptide (peptide)
peptide: HAEGTFTSDVSK([AEEA-AEEA-γGlu-13‑carboxytridecanoyl])YLEGQAVREFIAK([AEEA-AEEA-γGlu-13‑carboxytridecanoyl])LVRGRG
B3: GLP-1 derivative of Example 61: [Lys18,Glu22,His26,Lys27,Gln34]-GLP-1-(7-37)-peptide (peptide)
peptide: HAEGTFTSDVSK([AEEA-AEEA-γGlu-13‑carboxytridecanoyl])YLEEQAAHK([AEEA-AEEA-γGlu-13‑carboxytridecanoyl])FIAWLVQGRG
B4: GLP-1 derivative of Example 34: [Lys18,Gln34]-GLP-1-(7-37)-peptide (peptide)
peptide: HAEGTFTSDVSK([AEEA-AEEA-γGlu-Decanoyl(10-(4-HOOC-PhO))])YLEGQAAK([AEEA-AEEA-γGlu-Decanoyl(10-(4-HOOC-PhO))])EFIAWLVQGRG
B5: GLP-1 derivative of Example 44: [Lys18,Glu22,Val25,Arg26,Lys31,Gln34]-GLP-1-(7-37)-peptide (peptide)
peptide: HAEGTFTSDVSK([AEEA-AEEA-γGlu-13‑carboxytridecanoyl])YLEEQAVREFIAK([AEEA-AEEA-γGlu-13‑carboxytridecanoyl])LVQGRG
B6: GLP-1 derivative of Example 89: [Lys18,Glu22,Gln34]-GLP-1-(7-37)-peptide (peptide)
peptide: HAEGTFTSDVSK([AEEA-AEEA-γGlu-8‑(4-carboxyphenoxy)octanoyl])YLEEQAAK([AEEA-AEEA-γGlu-8‑(4-carboxyphenoxy)octanoyl])EFIAWLVQGRG
B7: GLP-1 derivative of Example 55: [Lys18,Glu22,Val25,Arg26,Lys31,Arg34]-GLP-1-(7-37)-peptide (peptide)
peptide: HAEGTFTSDVSK([γGlu-AEEA-AEEA-13‑carboxytridecanoyl])YLEEQAVREFIAK([γGlu-AEEA-AEEA-13‑carboxytridecanoyl])LVRGRG
B8: GLP-1 derivative of Example 57: [Lys18,Glu22,Glu23,Val25,Arg26,Lys27,Arg34]-GLP-1-(7-37)-peptide (peptide)
peptide: HAEGTFTSDVSK([AEEA-AEEA-γGlu-13‑carboxytridecanoyl])YLEEEAVRK([AEEA-AEEA-γGlu-13‑carboxytridecanoyl])FIAWLVRGRG
B9: GLP-1 derivative of Example 40: [Lys18,Glu22,Gln34]-GLP-1-(7-37)-peptide (peptide)
peptide: HAEGTFTSDVSK([AEEA-AEEA-γGlu-C12 diacid])YLEEQAAK([AEEA-AEEA-γGlu-C12 diacid])EFIAWLVQGRG
B10: GLP-1 derivative of Example 48: [Lys18,Glu22,Val25,Arg26,Lys27,Gln34]-GLP-1-(7-37)-peptide (peptide)
peptide: HAEGTFTSDVSK([AEEA-AEEA-γGlu-13‑carboxytridecanoyl])YLEEQAVRK([AEEA-AEEA-γGlu-13‑carboxytridecanoyl])FIAWLVQGRG
B11: GLP-1 derivative of Example 47: [Lys18,Glu22,Val25,Arg26,Lys27,His31,Arg34]-GLP-1-(7-37)-peptide (peptide)
peptide: HAEGTFTSDVSK([AEEA-AEEA-γGlu-13‑carboxytridecanoyl])YLEEQAVRKFIAHLVRGRG
notes: Printed name omits the second acylation; printed masses fit a double-acylated compound
B12: GLP-1 derivative of Example 38: [Lys18,Glu22,Gln34]-GLP-1-(7-37)-peptide (peptide)
peptide: HAEGTFTSDVSK([AEEA-AEEA-γGlu-Decanoyl(10-(4-HOOC-PhO))])YLEEQAAK([AEEA-AEEA-γGlu-Decanoyl(10-(4-HOOC-PhO))])EFIAWLVQGRG
B13: GLP-1 derivative of Example 94: [Lys18,Glu22,Arg34]-GLP-1-(7-37)-peptide (peptide)
peptide: HAEGTFTSDVSK([AEEA-AEEA-γGlu-Decanoyl(10-(4-HOOC-PhO))])YLEEQAAK([AEEA-AEEA-γGlu-Decanoyl(10-(4-HOOC-PhO))])EFIAWLVRGRG
B14: GLP-1 derivative of Example 70: [Lys18,Arg26,Lys31,Arg34]-GLP-1-(7-37)-peptide (peptide)
peptide: HAEGTFTSDVSK([AEEA-AEEA-γGlu-13‑carboxytridecanoyl])YLEGQAAREFIAK([AEEA-AEEA-γGlu-13‑carboxytridecanoyl])LVRGRG
B15: GLP-1 derivative of Example 67: [Lys18,His26,Lys27,Gln34]-GLP-1-(7-37)-peptide (peptide)
peptide: HAEGTFTSDVSK([AEEA-AEEA-γGlu-Decanoyl(10-(4-HOOC-PhO))])YLEGQAAHK([AEEA-AEEA-γGlu-Decanoyl(10-(4-HOOC-PhO))])FIAWLVQGRG

These binders were tested against T1, human GLP-1 receptor (human, UniProt P43220 24-463) (assay: SPA, displacement of 125I-GLP-1(7-36)NH2, 0.005% HSA).
T1 construct: whole, on cells; Used as purified membranes of the transfected hamster cells, not whole cells; also called hGLP-1
Protocol: (§1) A shift in the binding affinity, $IC50$, is an indication that the derivative in question binds to albumin, and thereby a prediction of a potential protracted pharmacokinetic profile of the derivative in question in animal models.
(§2) 25 ul (microliter) of test compounds are added to Optiplate. HSA ("high albumin" experiment containing 2% HSA), or buffer ("low albumin" experiment containing 0.005% HSA), was added (50 ul). 5-10 µg protein/sample was added (50 ul) corresponding to 0.1-0.2 mg protein/ml (to be preferably optimised for each membrane preparation). SPA-particles (Wheatgerm agglutinin SPA beads, Perkin Elmer, #RPNQ0001) were added in an amount of 0.5 mg/well (50 ul). […] The plates were sealed with PlateSealer and incubated for 120 minutes at 30° C. while shaking. The plates were centrifuged (1500 rpm, 10 min) and counted in Topcounter.

Binder	IC50 [nM]
B1	< 1000
B2	< 1000
B3	< 1000
B4	< 1000
B5	< 1000
B6	< 1000
B7	< 1000
B8	< 1000
B9	< 1000
B10	< 1000
B11	< 1000
B12	< 1000
B13	< 1000
B14	< 1000
B15	< 1000

What follows are binders tested against T1, human GLP-1 receptor (assay: SPA, 2.0% vs 0.005% HSA).
Protocol: as §1, §2

Binder	ratio IC50 high HSA/IC50 low HSA
B1	> 1
B2	> 1
B3	> 1
B4	> 1
B5	> 1
B6	> 1
B7	> 1
B8	> 1
B9	> 1
B10	> 1
B11	> 1
B12	> 1
B13	> 1
B14	> 1
B15	> 1
